Assay results reported in patent US20210071221.
Changes are numbered by the printed parent chain.

How the values were obtained:
[1] = biological target: T1, Acceptor substrate 6 (SEQ ID NO: 9)
T1 chain: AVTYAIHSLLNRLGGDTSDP

[2] = biological target: T2, Acceptor substrate 2 (SEQ ID NO: 5)
T2 chain: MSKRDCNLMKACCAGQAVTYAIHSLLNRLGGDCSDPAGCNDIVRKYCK

[3] = biological target: T3, Acceptor substrate 1 (SEQ ID NO: 4)
T3 chain: T2 chain with C33S

B1: C-terminal 6X-His tagged recombinant nucleotide dependent glycosyltransferase protein (GT-CTH) (protein)
chain: MGYSENFIANDWFNVEVFNKNKYTLTNQENKDVTELWLQILKGLKFPNELKETVSYSKNLKELSLKTHAEVSVCIIAKNEQDSIRKCINSIYEFSDEIIFIDTGSIDSTKKIVKEIASEKVKIFDYTWQDDFSDARNYSIQKASKEWILIIDADEYVSSDELIKLRLLIDMLDRFKFKDSLRVSCAIYQLDNVITHGQSRLFRNNNKIKYYGLIHEELRNNKGLDPIFNVESEITFFHDGYKEILRKEKCERNIRLLAKMLEKEPDNVRWAYLYCRDSFSINSNIDFEKILLPFLIKNMDESISCENILLTNYTHLILFLITKKYIIDGKSSLASKCIEVLEKMLPNSSDVTFYKFLNKQHSLYEQQFEFLKEVIQFRKNNEYDQYSQIGCNLLHYDLLISGLLFDVKSYDYSYQYFLKLDLANYFSELEIPDEYKMLINKYRENESLEHHHHHH
in vitro glycosylation of the acceptor peptide, MALDI-TOF [1]: observed (M+H)^+ of di-glycosylated product as 2424.65 Da (Expected (M+H)^+ 2424.07 Da) and observed (M+H)^+ of mono-glycosylated product as 2262.57 Da
in vitro glycosylation of the acceptor peptide, LC-ESI-Q/TOF [2]: observed monoisotopic mass of di-glycosylated product as 5515.53 Da (Expected monoisotopic mass 5515.41 Da)
in vitro glycosylation of the acceptor peptide, LC-ESI-Q/TOF [3]: observed average mass of di-glycosylated product as 5503.47 Da (Expected average mass 5503.00 Da)
